Assay in all cases: native gel or EMSA; BN-PAGE (4-16% gradient) of 1% dodecylmaltoside extracts of cell lines cultured 24 hr with tetracycline, without or with 4 M urea; immunoblot with anti-TfR or anti-VSG221
(In EMSA bound probe runs differently from free probe, usually more slowly.)

The target in data set [1] is ESAG7, subunit of the transferrin receptor (TfR) without GPI anchor (T. brucei brucei (Lister 427)).
Data set [2] concerns the target ESAG6, GPI-anchored subunit of the transferrin receptor (TfR) (T. brucei brucei (Lister 427)).
Data set [3] concerns the molecule itself.

“ESAG7, subunit of the transferrin receptor (TfR) without GPI anchor (natural protein)” showed a stoichiometry N in data set [1] of 2.
With “ESAG6, GPI-anchored subunit of the transferrin receptor (TfR) (natural protein)”, the stoichiometry N in data set [2] came to 2.

B1: variant surface glycoprotein VSG221 (MITat1.2) (natural protein)
chain: AAEKGFKQAFWQPLCQVSEELDDQPKGALFTLQAAASKIQKMRDAALRASIYAEINHGTNRAKAAVIVANHYAMKADSGLEALKQTLSSQEVTATATASYLKGRIDEYLNLLLQTKESGTSGCMMDTSGTNTVTKAGGTIGGVPCKLQLSPIQPKRPAATYLGKAGYVGLTRQADAANNFHDNDAECRLASGHNTNGLGKSGQLSAAVTMAAGYVTVANSQTAVTVQALDALQEASGAAHQPWIDAWKAKKALTGAETAEFRNETAGIAGKTGVTKLVEEALLKKKDSEASEIQTELKKYFSGHENEQWTAIEKLISEQPVAQNLVGDNQPTKLGELEGNAKLTTILAYYRMETAGKFEVLTQKHKPAESQQQAAETEGSCNKKDQNECKSPCKWHNDAENKKCTLDKEEAKKVADETAKDGKTGNTNTTGSS
modifications: GPI anchor, C-terminal
notes: variant surface glycoprotein VSG221 of MITat1.2, T. brucei brucei Lister 427; Internal control of the BN-PAGE; also called dVSG; mVSG; source: endogenous, bloodstream form T. brucei brucei Lister 427 (MITat1.2), dodecylmaltoside extract
For the molecule B1, the “stoichiometry N” value in data set [3] was determined as 2.

Usually stoichiometry N stands for a count of units in the complex or per binding partner.

(Values after paper PMC5426795, “Controlling transferrin receptor trafficking with GPI-valence in bloodstream stage African trypanosomes” (PLoS Pathogens, 2017).)
